Laboratory results from patent US20180271994A1 (published 2018).

Key:
[1] = target: immunodominant epitope of the MUC18 antigen; assay: phage ELISA, peptide coated at 100 ug/ml (control phage)
MUC18 antigen = target: T1, MUC18 antigen (human, UniProt P43121 24-646); assay: cell-based or functional assay
T1 sequence (looked up): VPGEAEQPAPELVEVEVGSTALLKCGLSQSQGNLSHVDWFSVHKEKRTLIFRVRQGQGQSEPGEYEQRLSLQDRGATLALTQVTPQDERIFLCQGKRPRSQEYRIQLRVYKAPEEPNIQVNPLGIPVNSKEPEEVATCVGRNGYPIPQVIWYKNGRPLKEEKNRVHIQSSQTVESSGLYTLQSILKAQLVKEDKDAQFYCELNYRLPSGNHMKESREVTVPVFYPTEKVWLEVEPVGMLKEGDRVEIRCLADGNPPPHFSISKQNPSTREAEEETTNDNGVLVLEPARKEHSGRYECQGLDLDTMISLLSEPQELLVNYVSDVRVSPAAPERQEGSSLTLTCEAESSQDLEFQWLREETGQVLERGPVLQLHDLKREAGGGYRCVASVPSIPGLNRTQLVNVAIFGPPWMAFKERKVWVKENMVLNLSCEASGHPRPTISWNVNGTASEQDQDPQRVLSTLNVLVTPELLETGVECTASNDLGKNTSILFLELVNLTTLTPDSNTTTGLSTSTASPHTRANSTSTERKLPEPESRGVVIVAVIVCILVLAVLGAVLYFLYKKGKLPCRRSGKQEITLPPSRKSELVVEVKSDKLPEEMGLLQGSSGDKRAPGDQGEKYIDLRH

[2] = target: immunodominant epitope of the MUC18 antigen; assay: phage ELISA, peptide well against negative control well
[3] = target: immunodominant epitope of the MUC18 antigen; assay: phage ELISA, peptide coated at 100 ug/ml
unrelated peptide = assay: phage ELISA, well with unrelated peptide (control)

unrelated phage
mean absorbance (OD 450 nm) [1]: 0.17 OD450

B1: anti-MUC18 human immunotoxin (other)
chain: GRGALVESGPGLVKPSETLFLTCTVSGGSISSYYWSWIRQPAGKGLEWIAYIYYSGSTNYNPSLKSRVTISVDTSNNQFSLKLSSVTAADTAVYYCAKLTAAGGHFDPWGQGTLVTVSSGGGGSGGGGSGGGGSDIVMTQSPSSLSASIGDRVTITCRASQGISNFLAWFQQKPGKAPKSLIYAASSLQSGVPSKFSGSGSGTDFTLAISSLQPEDFATYYCLQDSDYPLTFGGGTKLEIKRASGGPEGGSRHRQPRGWEQLADVVSLTCPVAAGECAGPADSGDALLERNYPTGAEFLGDGGAISFSTRGTQNWTVERLLQAHRQLEEGGYVFVGYHGTFLEAAQSIVFGGVRARSQDLDAIWAGFYIAGDPALAYGYAQDQEPDAAGRIRNGALLRVYVPRSSLPGFYATGLTLAAPEAAGEVERLIGHPLPLRLDAITGPEEAGGRLETILGWPLAERTVVIPSAIPTDPRNVGGDLDPSSIPDSEAAISALPDYASQPGKPPKDEL
IC50, MTT assay, A375 cells, 24 hours (MUC18 antigen): ~2.1 nM | IC50, MTT assay, DU145 cells, 24 hours (MUC18 antigen): ~6.1 nM

B2: anti-MUC18 HscFv-displaying phage (scFv)
scFv: GRGALVESGPGLVKPSETLFLTCTVSGGSISSYYWSWIRQPAGKGLEWIAYIYYSGSTNYNPSLKSRVTISVDTSNNQFSLKLSSVTAADTAVYYCAKLTAAGGHFDPWGQGTLVTVSSGGGGSGGGGSGGGGSDIVMTQSPSSLSASIGDRVTITCRASQGISNFLAWFQQKPGKAPKSLIYAASSLQSGVPSKFSGSGSGTDFTLAISSLQPEDFATYYCLQDSDYPLTFGGGTKLEIKR
fold OD over negative control well [2]: 4 fold | mean absorbance (OD 450 nm) [3]: 1.6 OD450 | mean absorbance (OD 450 nm) (unrelated peptide): 0.1 OD450
